{"source": "patent US20250154238A1", "about": "“METHODS AND COMPOSITIONS FOR TREATING AND PREVENTING FIBROSIS” (YALE UNIVERSITY, priority 2022, published 2025)", "key": {"[1]": {"target": "recombinant mouse epiregulin (mouse) (UniProt Q61521)", "sequence (Q61521 56-101 limits assumed)": "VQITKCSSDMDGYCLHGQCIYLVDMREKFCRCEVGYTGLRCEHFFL"}, "[2]": {"target": "recombinant human epiregulin containing the epidermal growth factor (EGF) domain (R&D Biosciences Cat #1195-EP) (human) (UniProt O14944)", "sequence (O14944 63-108 limits assumed)": "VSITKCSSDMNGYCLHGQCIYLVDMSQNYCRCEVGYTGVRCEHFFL", "assay": "cell-based or functional assay"}}, "data": [{"substance": "rat anti-human/mouse neutralizing epiregulin antibody (R&D Systems MAB1068, clone 189611)", "values": [{"measurement": "IC50 of inhibition of HFF proliferation induced by 100 ng/ml rmEreg (GFP fluorescence)", "setting": "[1]", "result": 0.1, "unit": "µg/mL"}, {"measurement": "IC50 of inhibition of epiregulin-induced HFF proliferation (rhEreg 100 ng/ml)", "setting": "[2]", "result": 0.16, "unit": "µg/mL"}]}]}
